According to patent US20220008473A1 (CRISPR THERAPEUTICS, published 2022):

Biological target: T1, biotinylated recombinant human BCMA (ACROS Cat #BC7-H82F0) (human, UniProt Q02223 1-54, biotinylated (site not stated))
T1 construct: Bought reagent; also called CD269; B-cell maturation antigen
T1 sequence (looked up): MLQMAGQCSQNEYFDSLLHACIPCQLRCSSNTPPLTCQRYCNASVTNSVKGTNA
Assay: flow cytometry of CAR T cells stained with biotinylated recombinant antigen

B1: anti-BCMA CAR comprising the amino acid sequence of SEQ ID NO: 86 (other)
chain: QVQLVQSGAELKKPGASVKVSCKASGNTLTNYVIHWVRQAPGQRLEWMGYILPYNDLTKYSQKFQGRVTITRDKSASTAYMELSSLRSEDTAVYYCTRWDWDGFFDPWGQGTTVTVSSGGGGSGGGGSGGGGSEIVMTQSPATLSVSPGERASISCRASQSLVHSNGNTHLHWYQQRPGQAPRLLIYSVSNRFSEVPARFSGSGSGTDFTLTISSVESEDFAVYYCSQTSHIPYTFGGGTKLEIKSAAAFVPVFLPAKPTTTPAPRPPTPAPTIASQPLSLRPEACRPAAGGAVHTRGLDFACDIYIWAPLAGTCGVLLLSLVITLYCNHRNRKRGRKKLLYIFKQPFMRPVQTTQEEDGCSCRFPEEEEGGCELRVKFSRSADAPAYQQGQNQLYNELNLGRREEYDVLDKRRGRDPEMGGKPRRKNPQEGLYNELQKDKMAEAYSEIGMKGERRRGKGHDGLYQGLSTATKDTYDALHMQALPPR
notes: Chimeric antigen receptor on engineered human T cells
Does B1 bind?
Result: binds
